Results from the supplement of paper PMC7125110.
± gives the standard error. For part of these data: Fewer inactive variants are shown than the library holds.

B1: glmS ribozyme (parent)
chain: AUAAAAGCGCCAGAACUACAGAAAUGUAGUUGACGAGGAGGAGGUUUAUCGAAUUUUCGGCGGAUGCCUCCAAA

Legend:
Conditions in all cases: with glucosamine-6-phosphate
[1] = variants of: B1; assay: kcat; higher = faster cleavage; RNA array
Summary of the method: (§1)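 kobs was derived by fitting per-tile medians to one- or two-exponential decays after normalising signals to baseline and to non-cleaving reference variants. Those signals came from barcoded ribozyme variants transcribed in situ by E. coli RNA polymerase on sequenced MiSeq chips, followed through a hybridised Cy3 probe at 37 °C and imaged over ~14 h. Glucosamine-6-phosphate (40 μM to 10 mM) in HEPES/KCl/Mg(OAc)2 buffer was flowed in. Weighted Michaelis–Menten fits across concentrations then gave kcat and KM.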

[2] = variants of: B1; assay: KM; higher = weaker cofactor use; RNA array
Summary of the method: as §1

[3] = variants of: B1; assay: self-cleavage kobs at 160 uM GlcN6P; higher = faster cleavage; RNA array
Summary of the method: as §1

[4] = variants of: B1; assay: self-cleavage kobs at 640 uM GlcN6P; higher = faster cleavage; RNA array
Summary of the method: as §1

[5] = variants of: B1; assay: self-cleavage kobs at 2500 uM GlcN6P; higher = faster cleavage; RNA array
Summary of the method: as §1

[6] = variants of: B1; assay: self-cleavage kobs at 10000 uM GlcN6P; higher = faster cleavage; RNA array
Summary of the method: as §1

[7] = variants of: B1; assay: self-cleavage kobs at 40 uM GlcN6P; higher = faster cleavage; RNA array
Summary of the method: as §1

Variant	kcat [1] [s⁻¹]	KM [2] [µM]	self-cleavage kobs at 160 uM GlcN6P [3] [s⁻¹]	self-cleavage kobs at 640 uM GlcN6P [4] [s⁻¹]	self-cleavage kobs at 2500 uM GlcN6P [5] [s⁻¹]	self-cleavage kobs at 10000 uM GlcN6P [6] [s⁻¹]	self-cleavage kobs at 40 uM GlcN6P [7] [s⁻¹]
AUAAAAGCGCCAGAACUACAGAAAUGUAGUAGACGAGGAGGAGGUUUAUCGAAUUUUCUGCGGAUGCCUCCAAA	3.57e-05 ± 2.2e-06	2240 ± 490					
AUAAAAGCGCCAGAACUACAGAAAUGUAGUAGACGAGGAGGAGGUUUAUCGAAUUUUGGGCCGCUGACUCCAAA	1.85e-05 ± 3.6e-06						
AUAAAAGCGCCAGAACUACAGAAAUGUAGUCGACGAGGAUGAGGUUUAUCGAAUUUUCGGCGGAUGCCUCCAAA	0.000615 ± 0.00011	2870 ± 920	4.05e-05 ± 1.4e-05	0.000122 ± 2.1e-05	0.000236 ± 4.1e-05	0.000515 ± 6.3e-05	
AUAAAAGCGCCAGAACUACAGAAAUGUAGUCGACGAGGAUGAGGUUAAUCGAAUUUUCGGCGGAUGCCUCCAAA	0.000144 ± 4.5e-05				0.000154 ± 4.5e-05	0.000116 ± 2.2e-05	
AUAAAAGCGCCAGAACUACAGAAAUGUAGUCGACGAGGAGGAGGUUUAUCGAAUUUUCGGCGGAUACCUCCAAA	0.00283 ± 0.00065	2030 ± 750	0.000128 ± 4.7e-05	0.000724 ± 8.4e-05	0.00127 ± 0.00017	0.00266 ± 0.00027	6.95e-05 ± 9.4e-06
AUAAAAGCGCCAGAACUACAGAAAUGUAGUAGACGAGGAGGAGGUUGAUCGAAUUUUCGGCGGAUGCCUCCAAA	0.00294 ± 0.0012		0.000353 ± 7.9e-05	0.00063 ± 0.00014	0.00264 ± 0.00082	0.00266 ± 0.00079	7.57e-05 ± 1.9e-05
AUAAAAGCGCCAGAACUACAGAAAUGUAGUCGACGAGGAGGAGGUUUAUCGGAUUUUCGGCGGAUGCCUCCAAA	0.000531 ± 5.8e-05	4640 ± 810	2.13e-05 ± 8.7e-06	6.14e-05 ± 7.4e-06	0.000196 ± 2.2e-05	0.000358 ± 3.4e-05	
AUAAAAGCGCCAGAACUACAGAAAUGUAGUCGACGAGGAGGAGGUUUAUCGAAUUUUGGGCGGAUGCCUCCAAA	7.48e-05 ± 2.5e-05			2.98e-05 ± 1.3e-05	2.91e-05 ± 1.1e-05	6.27e-05 ± 1.2e-05	< 1e-05
